The record followed here is US20210388105A1 (ELPISCIENCE SUZHOU BIOPHARMA, published 2021).

For test [1], the target named is T1, human CD39 (full length, on cells) (human, UniProt P49961 1-510).
T1 construct: Recombinant on CHOK1-hCD39 cells or natural on SK-MEL-28, SK-MEL-5 and MOLP-8 cells; the cell line is named under assay; also called hCD39; ENTPD1
T1 sequence: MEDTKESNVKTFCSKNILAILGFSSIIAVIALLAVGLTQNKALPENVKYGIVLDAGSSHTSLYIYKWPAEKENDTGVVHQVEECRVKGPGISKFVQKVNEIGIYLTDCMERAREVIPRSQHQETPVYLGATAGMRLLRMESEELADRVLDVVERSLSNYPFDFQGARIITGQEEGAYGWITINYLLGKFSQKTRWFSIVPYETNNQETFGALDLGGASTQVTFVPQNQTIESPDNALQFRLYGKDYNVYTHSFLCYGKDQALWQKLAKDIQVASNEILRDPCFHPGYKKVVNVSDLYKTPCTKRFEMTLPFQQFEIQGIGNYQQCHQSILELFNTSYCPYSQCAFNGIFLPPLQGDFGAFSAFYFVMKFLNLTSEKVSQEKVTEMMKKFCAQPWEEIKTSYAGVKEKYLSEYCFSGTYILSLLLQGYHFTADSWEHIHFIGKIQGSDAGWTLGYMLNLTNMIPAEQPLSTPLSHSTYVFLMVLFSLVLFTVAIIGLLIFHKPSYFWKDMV
Briefly: FACS on MOLP-8 cells, MFI. Here is the method: (§1) Similarly, human CD39 expressing cells SK-MEL-5, SK-MEL-28 or MOLP-8, were incubated with a gradient concentration of anti-CD39 antibodies for 30 minutes at 4° C. Cells were washed 3 times using FACS buffer and next incubated with fluorescence labelled secondary antibody (goat-anti-mouse IgG or goat anti-human IgG) for 30 minutes at 4° C. Cells were washed 3 times and then re-suspended in FACS buffer and analyzed by flow cytometry analysis on BD Celesta. Data plotted and analyzed using GraphPad Prism 8.02.
The binding affinity of the humanized antibodies for c14 was determined by FACS using MOLP-8 cells expressing human CD39, using similar methods as described in Example 3.2.

Test [2] concerns the target T2, cynomolgus CD39 (full length, on CHOK1-cynoCD39 cells) (cynomolgus monkey, UniProt A0A7N9DGH8 1-510).
T2 construct: whole, on cells; also called cCD39
T2 sequence: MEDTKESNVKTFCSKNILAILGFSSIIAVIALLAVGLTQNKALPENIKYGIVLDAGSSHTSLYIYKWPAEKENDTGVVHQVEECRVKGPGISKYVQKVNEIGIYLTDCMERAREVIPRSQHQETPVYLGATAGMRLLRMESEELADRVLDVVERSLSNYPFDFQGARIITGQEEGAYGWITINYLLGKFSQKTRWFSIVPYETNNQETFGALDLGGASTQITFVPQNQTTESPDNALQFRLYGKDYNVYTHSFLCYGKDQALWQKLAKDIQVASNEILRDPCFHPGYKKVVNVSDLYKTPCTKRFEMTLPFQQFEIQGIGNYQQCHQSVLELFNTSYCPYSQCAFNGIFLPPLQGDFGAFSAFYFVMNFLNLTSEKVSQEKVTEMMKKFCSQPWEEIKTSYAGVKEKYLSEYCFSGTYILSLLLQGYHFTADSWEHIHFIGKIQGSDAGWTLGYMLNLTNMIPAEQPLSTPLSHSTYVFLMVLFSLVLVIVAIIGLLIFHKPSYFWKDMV
In words: FACS, CHOK1-cynoCD39 cells. From the text:
(§2) FACS were used to determine binding of the antibodies to cell lines expressing CD39 naturally (SK-MEL-28) or recombinantly (CHOK1-hCD39, CHOK1-cynoCD39, and CHOK1-mCD39), or with cells lacking CD39 expression (CHOK1-blank) as a negative control.
(§3) CHOK1-hCD39, CHOK1-cCD39, CHOK1-mCD39 and CHOK1-blank cells were maintained in culture medium according to ATCC procedure. Cells were collected and re-suspended in blocking buffer at a density of 3×10⁶ cells/ml. Cells were transferred to 96 well FACS plates at 100 μl/well (3×10⁵ cells/well), the plates were centrifuged and washed twice with FACS buffer (PBS, 1% FBS, 0.05% Tween-20). 4-folds serial dilution of anti-CD39 antibodies were prepared in FACS buffer starting from 30 μg/ml. Reference antibody 9-8B and mouse/human control IgG were used as positive and negative controls, respectively. Cells were re-suspended in 100 μL/well diluted antibodies, and the plates were incubated at 4° C. for 60 min. […] The plates were washed with FACS buffer, and cells were re-suspended in 100 μL/well of PBS. Cells were then analyzed with FACSVerse™ and mean fluorescence intensity were determined. Full binding curves were generated on the CD39 expressing cells by testing a range of antibody concentrations. Apparent affinity was determined for each antibody using Prism software.

The target of test [3] is T1, human CD39 (full length, on cells). In words: cell-based or functional assay.
Test [4] has the same target. In words: FACS, CHOK1-hCD39 cells.
Description: as §2, §3
A general note: In flow cytometry, cells or beads pass a laser one at a time.

Test [5] has as its target T3, mouse CD39 (full length, on CHOK1-mCD39 cells) (mouse, UniProt P55772 1-510).
T3 construct: whole, on cells
T3 sequence (looked up): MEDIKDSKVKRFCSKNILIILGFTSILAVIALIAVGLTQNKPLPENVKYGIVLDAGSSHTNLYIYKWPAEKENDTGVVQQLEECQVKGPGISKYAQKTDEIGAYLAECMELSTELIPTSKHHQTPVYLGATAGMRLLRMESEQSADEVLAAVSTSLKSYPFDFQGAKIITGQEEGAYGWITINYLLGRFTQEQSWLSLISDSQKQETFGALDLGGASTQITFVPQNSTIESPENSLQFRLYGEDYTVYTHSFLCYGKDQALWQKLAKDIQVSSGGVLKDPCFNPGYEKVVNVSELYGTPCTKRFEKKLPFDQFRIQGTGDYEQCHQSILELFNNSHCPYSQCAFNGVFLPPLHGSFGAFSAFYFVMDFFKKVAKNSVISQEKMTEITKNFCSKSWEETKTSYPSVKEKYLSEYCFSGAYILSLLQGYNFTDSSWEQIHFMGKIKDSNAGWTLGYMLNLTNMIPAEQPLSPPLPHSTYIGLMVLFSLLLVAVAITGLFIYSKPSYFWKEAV
Briefly: FACS, CHOK1-mCD39 cells.
Description: as §2, §3

Test [6] addresses T1, human CD39 (full length, on cells). Briefly: FACS, SK-MEL-28 cells. On the procedure:
as §2, §1

B1: hu14.H1L3 (antibody, V domains shown)
VH: EVQLVESGGGLVKPGGSLRLSCAASGFTFSKYWMNWVRQAPGKGLEWVGEIRLKSNKYGTHYAESVKGRFTISRDDSKNTLYLQMNSLKTEDTAVYYCTTQLDLYWFFDVWGQGTTVTVSS
VL: EIVLTQSPATLSVSPGERATLSCRASQSISDYLHWYQQKPGQSPRLLIYYASQSISGIPARFSGSGSGTDFTLTISSVEPEDFAVYFCQNGHSLPLTFGGGTKLEIK
notes: humanized c14
As for B1, the binding result in test [1] is “binds”.

B2: hu14.H2L3 (antibody, V domains shown)
VH: EVQLVESGGGLVKPGGSLRLSCAASGFTFSKYWMNWVRQSPGKGLEWVGEIRLKSNKYGTHYAESVKGRFTISRDDSKNTLYLQMNSLKTEDTAVYYCTTQLDLYWFFDVWGQGTTVTVSS
VL: EIVLTQSPATLSVSPGERATLSCRASQSISDYLHWYQQKPGQSPRLLIYYASQSISGIPARFSGSGSGTDFTLTISSVEPEDFAVYFCQNGHSLPLTFGGGTKLEIK
notes: humanized c14
In the case of B2, in test [1], the binding result was “binds”.

B3: hu14.H2L1 (antibody, V domains shown)
VH: EVQLVESGGGLVKPGGSLRLSCAASGFTFSKYWMNWVRQSPGKGLEWVGEIRLKSNKYGTHYAESVKGRFTISRDDSKNTLYLQMNSLKTEDTAVYYCTTQLDLYWFFDVWGQGTTVTVSS
VL: EIVLTQSPATLSLSPGERATLSCRASQSISDYLHWYQQKPGQAPRLLIYYASQSISGIPARFSGSGSGTDFTLTISSLEPEDFAVYYCQNGHSLPLTFGGGTKLEIK
notes: humanized c14
Regarding B3, the binding result in test [1] is “binds”.

B4: hu14.H1L4 (antibody, V domains shown)
VH: EVQLVESGGGLVKPGGSLRLSCAASGFTFSKYWMNWVRQAPGKGLEWVGEIRLKSNKYGTHYAESVKGRFTISRDDSKNTLYLQMNSLKTEDTAVYYCTTQLDLYWFFDVWGQGTTVTVSS
VL: EIVMTQSPATLSVSPGERVTLSCRASQSISDYLHWYQQKPGQSPRLLIYYASQSISGIPARFSGSGSGTDFTLTISSVEPEDFAVYFCQNGHSLPLTFGGGTKLEIK
notes: humanized c14
In the case of B4, the binding result in test [1] is “binds”.

B5: mAb13 (antibody, V domains shown)
VH: QIQLVQSGPELKKPGETVKISCKASGYTFTNYGMNWVKQAPGKGLRWMGLINTYTGEPTYADDFKDRFAFSLETSASTAFLQINNLKDEDMATYFCARKGIYYDYVWFFDVWGAGTTVTVSS
VL: DIQMTQSPSSLSTSLGGKVSITCKASQDINRYIAWYQHKPGKGPRLLIHYTSTLLPGIPSRFSGSGSGRDYSFSISNLEPEDIATYFCLQYSNLLTFGGGTKLEIK
notes: mouse hybridoma antibody
For the molecule B5, the EC50 in test [2] was determined as 21 nM; in test [4], 30 nM; in test [6], 11 nM. In test [3], the “SK-MEL-28 cell based ATPase inhibition % at 10 nM” value was found to be 43%. In test [5], the binding result is reported as “no binding (tested: 30 µg/ml highest concentration)”.

B6: mAb35 (antibody, V domains shown)
VH: EVRLQQSGAELVKPGASVKLSCTASGFNIEDTYVHWMKQRPEQGLEWIGRIDPAIDNSKYDPKFQGKATITAVSSSNTAYLQLSSLTSEDTAVYYCALYDGYNVYAMDYWGQGTSVTVSS
VL: DIVMTQAAFSNPVTLGTSASISCRSSKNLLHSNGITYLYWYLQRPGQSPQLLIYRASTLASGVPNRFSGSESGTDFTLRISRVEAEDVGVYYCAQLLELPHTFGGGTKLEIK
notes: mouse hybridoma antibody
On to B6, for which the figures for the EC50 in test [2], in test [4] and in test [6] were 5.3 nM, 5.2 nM and 1.8 nM, respectively. In test [3], the “SK-MEL-28 cell based ATPase inhibition % at 10 nM” value worked out at 56%. In addition, the binding result in test [5] is “no binding (tested: 30 µg/ml highest concentration)”.

B7: mAb34 (antibody, V domains shown)
VH: EIQVQQSGPELVKPGASVKVSCKASGYSFTDYNMYWVKQSHGKSLEWIGFIDPYNGYTSYNQKFKGKATLTIDKSSSTAFMHLNSLTSEDSAVYYCAIYGYDDAYYFDYWGQGTTLTVSS
VL: QIVLTQSPAIMSASPGEKVTITCSATSSVSYMHWFRQKPGTSPKLWIYSTSNLASGVPARFSGSGSGTSYSLTISRMAAEDAATYYCQQRITYPFTFGSGTKLEIT
notes: mouse hybridoma antibody
For the molecule B7, the EC50 turned out to be 3.1 nM in test [2], 4.4 nM in test [4] and 4.7 nM in test [6]. Besides, in test [3], the “SK-MEL-28 cell based ATPase inhibition % at 10 nM” value was 72%. Also, in test [5], the binding result is listed as “no binding (tested: 30 µg/ml highest concentration)”.

As a reminder, the EC50 is the concentration that produces a half-maximal response. Higher therefore signals weaker potency.
